Measurements from patent US20260185069.

Experiments:
[1] = test system: T1, Dn29 large serine recombinase (Desulfotomaculum nigrificans); experiment: cell_activity; settings: HEK293FT, unfused LSR, UMI integration-site mapping
T1 sequence: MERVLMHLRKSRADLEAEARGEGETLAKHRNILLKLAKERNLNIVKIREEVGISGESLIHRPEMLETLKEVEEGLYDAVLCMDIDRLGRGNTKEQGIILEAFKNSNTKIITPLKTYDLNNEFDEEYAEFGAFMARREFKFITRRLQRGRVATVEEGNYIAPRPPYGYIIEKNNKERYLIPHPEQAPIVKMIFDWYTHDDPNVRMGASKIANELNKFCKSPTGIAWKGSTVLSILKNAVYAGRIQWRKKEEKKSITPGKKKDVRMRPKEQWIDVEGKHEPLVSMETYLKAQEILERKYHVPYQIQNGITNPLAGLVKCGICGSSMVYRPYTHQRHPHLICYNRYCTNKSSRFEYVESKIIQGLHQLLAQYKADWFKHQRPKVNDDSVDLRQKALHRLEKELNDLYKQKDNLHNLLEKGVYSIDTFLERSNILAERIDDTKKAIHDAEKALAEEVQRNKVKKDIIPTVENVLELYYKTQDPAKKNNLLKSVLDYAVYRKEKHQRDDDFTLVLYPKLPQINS

[2] = target: Dn29-XTEN32-(GGSS)2-dCas9 fusion (synthetic construct) (UniProt Q99ZW2); experiment: cell_activity; settings: HEK293FT, attD donor plasmid, single gRNA near attH1, ddPCR; specificity about 78% of UMIs with guide 3

Dn29 attH1 pseudosite (chr10:21,130,404, NEBL intron)
activity (% of integrations at site) [1]: 30
activity (% integration) [2]: < 30
